In US20180030137A1 (ADURO BIOTECH HOLDINGS EUROPE B V, published 2018):
“And” between values parts separate entries of the source, which are not always exact repeats. Identical values can stand only once.

Legend:
[1] = target: T1, Macaca fascicularis PD-1 (Swiss-Prot entry B0LAJ3), full length, on cells (Macaca fascicularis, UniProt Q15116 25-288 (human entry)); experiment: flow cytometry, Binding (%), on anti-CD3/anti-CD28 stimulated cynomolgus PBMCs; animal #1 or #3, same marker in the legend
T1 construct: Full length open reading frame transiently expressed on CHO-K1 cells; also endogenous PD-1 on CD3/CD28-stimulated cynomolgus PBMCs; No signal peptide limits are stated for the cynomolgus entry; also called cyno PD-1; cynomolgus PD-1
T1 chain: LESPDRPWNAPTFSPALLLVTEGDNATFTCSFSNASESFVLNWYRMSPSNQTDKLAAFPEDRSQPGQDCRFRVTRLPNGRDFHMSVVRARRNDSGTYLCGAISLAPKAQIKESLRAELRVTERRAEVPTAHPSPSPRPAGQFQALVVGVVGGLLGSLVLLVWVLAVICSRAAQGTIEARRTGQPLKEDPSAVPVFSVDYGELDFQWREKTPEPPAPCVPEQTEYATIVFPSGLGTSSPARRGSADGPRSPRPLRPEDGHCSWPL
Procedure: (§1) To this end Macacaca fascicularis (cynomolgus) blood was diluted 1:1 with PBS and added to 50 ml tubes containing 13 ml Lymphoprep 95%/PBS 5%. Cells were centrifuged for 30′ at 450 g and 20° C. without brake. Next, plasma was removed by aspiration and PBMCs were recovered from the plasma/Ficoll interface. PBMCs were washed twice times in PBS. Cells were frozen in liquid nitrogen and retrieved from the freezer on the day of the experiment. Since endogenous expression of PD-1 on resting T cells is low thus the thawed PBMCs were stimulated with αCD3/αCD28 coated beads (Gibco) for 48 hours.

[2] = target: T1, Macaca fascicularis PD-1 (Swiss-Prot …); experiment: flow cytometry on CD3/CD28-stimulated cynomolgus PBMCs, three animals
Procedure: as §1

[3] = target: T2, Human PD-1 (Swiss-Prot entry Q15116), full length, on cells (human, UniProt Q15116 21-288); experiment: cell-based or functional assay
[4] = target: T2, Human PD-1 (Swiss-Prot entry Q15116), …; experiment: CELISA on CHO-K1.hPDCD1 cells
Procedure: To further characterize these mutant hPD-1 antibodies they were tested for binding to hPD-1 in CELISA format using CHO-K1 cells (American Type Culture Collection, Manassas, Va.), stably transfected with cDNA encoding the full length open reading frame of hPDCD1 (hPD-1), subcloned into the pCI-neo vector (Promega). Parental CHO-K1 or CHO-K1.hPDCD1 cells were seeded in culture medium (DMEM-F12 (Gibco) with 10% Fetal Bovine Serum (Hyclone) and Pen/Strep (Gibco)) in tissue culture plates and incubated for 48 hours at 37° C. Subsequently culture medium was removed and cells were incubated for 1 hour at 37° C. with the mutant hPD-1 antibodies (10 μg/ml (=66 nM) and dilutions thereof). Next, cells were washed with Phosphate-Buffered Saline/0.05% Tween (PBST) and incubated for 1 hour at 37° C. with Goat-anti-human IgG-HRP (Southern Biotech). Subsequently, cells were washed 3 times with PBST and anti-hPD1 immunoreactivity was visualized with 100 al TMB Stabilized Chromagen (Invitrogen). Reactions were stopped with 100 al 0.5 M H2SO4 and absorbances were read at 450 and 610 nm. […] Blockade of hPD-L1 binding by the mutant hPD-1 antibodies was tested in CELISA format. Parental CHO-K1 or CHO-K1.hPDCD1 cells were seeded in tissue culture plates and incubated for 72 hours at 37° C. in culture medium. Subsequently culture medium was removed and cells were incubated for 1 hour with the mutant hPD-1 antibodies (10 μg/ml (=66 nM) and dilutions thereof) at 37° C. […] Cells were then washed three times with PBST followed by addition of Streptavidin-HRP conjugate on the cells, which was incubated for 1 hour at 37° C. […] Reactions were stopped with 100 al 0.5 M H2SO4 and absorbances were read at 450 and 610 nm. Calculated IC50 values in Table 12 for the blockade of hPD-L1 represent the concentration at which half of the inhibition is observed.

[5] = target: T3, hPD-1/Fc fusion protein (R&D Systems) (human, UniProt Q15116 25-167); experiment: BLI (Octet RED96), hPD-1/Fc amine-coupled, IgG in solution, 1:1 global fit
T3 construct: Bought reagent; also called Recombinant hPD-1/Fc; not shown: Fc part of the bought fusion protein
Procedure: This assay was, performed by coupling hPD-1/Fc fusion protein (R&D Systems) to amine-reactive second generation biosensors (Fortebio) using standard amine chemistry. […] Amine-reactive biosensors were pre-wet by immersing them in wells containing 0.1M MES pH=5.5 for 10 minutes. The biosensors were then activated using a 0.1M NHS/0.4M EDC mixture for 5 minutes. hPD-1/Fc fusion protein was coupled by immersing the biosensors in a solution of 12 ug/mL hPD-1/Fc in 0.1 M MES for 7.5 minutes. The biosensor surface was quenched using a solution of 1M ethanolamine for 5 minutes. Biosensors were equilibrated in Octet kinetics buffer (ForteBio) for 5 minutes. […] Dissociation was measured after transfer of the biosensors into kinetics buffer and monitoring of the interferometry signal for 45 minutes. The assay was run with a plate temperature of 30° C. The observed on and off rates (kobs and kd) were fit using a 1:1 binding global fit model comprising all concentrations tested, and the equilibrium binding constant KD was calculated.

[6] = target: T1, Macaca fascicularis PD-1 (Swiss-Prot …); experiment: flow cytometry, Binding (%), on anti-CD3/anti-CD28 stimulated cynomolgus PBMCs, animal #2
Procedure: as §1

[7] = target: T2, Human PD-1 (Swiss-Prot entry Q15116), …; experiment: CELISA on CHO-K1.hPDCD1 cells; remark: listed apart in the source
Procedure: To further characterize these mutant hPD-1 antibodies they were tested for binding to hPD-1 in CELISA format using CHO-K1 cells (American Type Culture Collection, Manassas, Va.), stably transfected with cDNA encoding the full length open reading frame of hPDCD1 (hPD-1), subcloned into the pCI-neo vector (Promega). Parental CHO-K1 or CHO-K1.hPDCD1 cells were seeded in culture medium (DMEM-F12 (Gibco) with 10% Fetal Bovine Serum (Hyclone) and Pen/Strep (Gibco)) in tissue culture plates and incubated for 48 hours at 37° C. Subsequently culture medium was removed and cells were incubated for 1 hour at 37° C. with the mutant hPD-1 antibodies (10 μg/ml (=66 nM) and dilutions thereof). Next, cells were washed with Phosphate-Buffered Saline/0.05% Tween (PBST) and incubated for 1 hour at 37° C. with Goat-anti-human IgG-HRP (Southern Biotech). Subsequently, cells were washed 3 times with PBST and anti-hPD1 immunoreactivity was visualized with 100 al TMB Stabilized Chromagen (Invitrogen). Reactions were stopped with 100 al 0.5 M H2SO4 and absorbances were read at 450 and 610 nm. […] Blockade of hPD-L1 binding by the mutant hPD-1 antibodies was tested in CELISA format. […] Reactions were stopped with 100 al 0.5 M H2SO4 and absorbances were read at 450 and 610 nm. Calculated IC50 values in Table 12 for the blockade of hPD-L1 represent the concentration at which half of the inhibition is observed.

[8] = target: T2, Human PD-1 (Swiss-Prot entry Q15116), …; experiment: flow cytometry on CD3/CD28-stimulated human CD3+ T cells, three donors; CD3/CD28 stimulated human T cells, three donors
Procedure: Cells were stored in liquid nitrogen and retrieved from the freezer on the day of the experiment. Since endogenous expression of hPD-1 on resting T cells is low, the thawed CD3+ T cells were stimulated with αCD3/αCD28 coated beads (Gibco) for 48 hours.

T3 sequence (Q15116 25-167 limits assumed): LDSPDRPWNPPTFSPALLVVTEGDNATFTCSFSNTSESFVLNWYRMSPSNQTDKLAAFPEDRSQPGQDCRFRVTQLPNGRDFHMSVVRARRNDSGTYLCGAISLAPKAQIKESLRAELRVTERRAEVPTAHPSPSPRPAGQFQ
T2 sequence (Q15116 21-288, one chain of several): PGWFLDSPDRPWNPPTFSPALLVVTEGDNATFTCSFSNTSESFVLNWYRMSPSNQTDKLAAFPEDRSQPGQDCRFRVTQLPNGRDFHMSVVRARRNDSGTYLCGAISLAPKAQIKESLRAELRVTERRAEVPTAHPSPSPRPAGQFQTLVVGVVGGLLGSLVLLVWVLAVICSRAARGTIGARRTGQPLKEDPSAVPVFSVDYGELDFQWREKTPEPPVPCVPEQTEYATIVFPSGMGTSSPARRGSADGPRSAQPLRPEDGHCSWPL

B1: hPD1.29H5L4 (antibody, V domains shown)
VH: EVQLVQSGAEVKKPGASVKVSCKASGYIFTTYYIHWVKQAPGKGLEWIGWIFPGDVSTQYNEKFQDKATITVDKSASTAYMQLSSLRSEDTAVYYCTREAYDYAVYWGQGTLVTVSS
VL: DIQMTQAPSSLSASVGDRVTITCKASQNVDTNVAWFQQKPGKAPKSLIFSASYRYSGVPSRFSGSGSGTDFTLTISSLQPEDFATYYCQQYNNYPFTFGGGTKLEIK
notes: Expressed as human IgG4, kappa with the stabilizing S241P (Kabat) hinge mutation in HEK293 cells; also called humanized PD-1 antibody hPD1.29H5L4
With B1 the “EC50 (read off the curve)” value [1] was ~1 nM and ~2 nM, the EC50 [2] was 1.6 nM and the “IC50; NFAT-luciferase signal (RLU) of Jurkat cells expressing human PD-1, with CHO cells expressing hPD-L1” value [3] was 4.39 nM. For the same binder, the EC50 [4] was 0.3 nM, the Kd [5] was 0.011 nM and the koff [5] was 9.2e-06 s⁻¹. The kon [5] was 860000 M⁻¹ s⁻¹, the “EC50 (read off the curve)” value [6] was about 2 nM and the EC50 [7] was 0.13 nM. The EC50 [8] was 0.27 nM.
